Reference: article PMC8526164

How the values were obtained:
[1] = test system: AtEndoV (WT) (Arabidopsis thaliana); test: SPR; conditions: SPR (ProteOn XPR36, NLC chip): PBS, 0.005% Tween 20, pH 7.4, 1 mM EDTA, no divalent metal, 25 C, protein 31.25-500 nM
[2] = test system: AtEndoV (Y100A) (Arabidopsis thaliana); test: SPR; conditions: SPR (ProteOn XPR36, NLC chip): PBS, 0.005% Tween 20, pH 7.4, 1 mM EDTA, no divalent metal, 25 C, protein 31.25-500 nM
[3] = N at position 11 = deoxyinosine

Sequence | Kd ([1]; N at position 11 = inosine) [µM] | Kd ([2]; N at position 11 = inosine) [µM] | Kd [1, 3] [µM] | Kd [2, 3] [µM]
CUGUAUGAUGNAGAUGCUGAC [ssRNA(I) 21-mer] | 0.002 | 0.12 |  | 
CTGTATGATGNAGATGCTGAC [ssDNA(dI) 21-mer] |  |  | 220 | 160
